Reference: patent US20220162268A1 (BOARD OF TRUSTEES OF MICHIGAN STATE UNIVERSITY, published 2022)

Assays:
[1] = molecular target: T1, K28A_HO BMC-H 5815ggsSZ5-HA; test: fluorescence co-localization in E. coli, deconvolved widefield (FIG. 2C)
T1 construct: Self-assembles into higher-order sheets in E. coli; also called K28A 5815-Synthetic Zipper5 construct; K28AHO BMC-H-SZ5
T1 chain: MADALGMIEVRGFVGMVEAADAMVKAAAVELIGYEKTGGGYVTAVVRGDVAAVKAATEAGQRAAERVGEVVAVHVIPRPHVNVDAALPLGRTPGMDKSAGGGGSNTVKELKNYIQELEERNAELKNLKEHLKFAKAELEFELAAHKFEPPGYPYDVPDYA

[2] = molecular target: T1, K28A_HO BMC-H 5815ggsSZ5-HA; test: fluorescence co-localization in E. coli, 100 µM or 500 µM IPTG (FIG. 2I)
[3] = molecular target: T1, K28A_HO BMC-H 5815ggsSZ5-HA; test: fluorescence microscopy of E. coli co-expressing both, 100 µM or 500 µM IPTG (FIG. 2I)
[4] = molecular target: T1, K28A_HO BMC-H 5815ggsSZ5-HA; test: live-cell fluorescence time course in E. coli
Experimental: E. coli BL21 ArcticExpress (DE3) competent cells (Agilent) were used for cellular expression studies. Competent cells were transformed with constructs containing the gene(s) of interest and plated on LB agar plates with the appropriate antibiotic(s) to provide selection. Individual colonies were picked into 5 mL LB cultures with the appropriate antibiotics(s) and incubated at 30° C., with a rotational stirring of 250 RPM. These overnight cultures were inoculated 1:100 into fresh liquid cultures with conditions dependent upon the experimental plan. For TEM analysis, cells were inoculated in 50 mL LB, grown until ˜OD₆₀₀ 0.8, induced with 100 μM IPTG, and incubated for an additional 6 hours, before 2 mL of the parent culture was fixed overnight at 4° C. Cells used to purify protein were cultured in a similar manner, the whole culture was pelleted, and cell pellets were stored at −20° C. for subsequent protein isolation. Cultures analyzed via light microscopy were inoculated into 1 mL LB or SOB media in culture tubes and incubated the indicated amount of time before imaging. Appropriate inducer(s) (IPTG or aTc) were added as indicated for each experimental design.
The dynamics of scaffold nucleation and maturation was then visualized over time in live cells. […]

B1: Synthetic Zipper6 LINKER mNeonGreen StrepII Tag construct (designed binder)
chain: MQKVAQLKNRVAYKLKENAKLENIVARLENDNANLEKDIANLEKDIANLERDVARGSGGGSGGGSMVSKGEEDNMASLPATHELHIFGSINGVDFDMVGQGTGNPNDGYEELNLKSTKGDLQFSPWILVPHIGYGFHQYLPYPDGMSPFQAAMVDGSGYQVHRTMQFEDGASLTVNYRYTYEGSHIKGEAQVKGTGFPADGPVMTNSLTAADWCRSKKTYPNDKTIISTFKWSYTTGNGKRYRSTARTTYTFAKPMAANYLKNQPMYVFRKTELKHSKTELNFKEWQKAFTDVMGMDELYKSAWSHPQFEK
notes: also called SZ6-ggs-mNeonGreen; SZ6-mNeonGreen
Does B1 bind [1]?
Result: binds

B2: Synthetic Zipper6 LINKER mScarlet-I StrepII Tag construct (designed binder)
chain: MQKVAQLKNRVAYKLKENAKLENIVARLENDNANLEKDIANLEKDIANLERDVARGSGGGSGGGSMVSKGEAVIKEFMRFKVHMEGSMNGHEFEIEGEGEGRPYEGTQTAKLKVTKGGPLPFSWDILSPQFMYGSRAFIKHPADIPDYYKQSFPEGFKWERVMNFEDGGAVTVTQDTSLEDGTLIYKVKLRGTNFPPDGPVMQKKTMGWEASTERLYPEDGVLKGDIKMALRLKDGGRYLADFKTTYKAKKPVQMPGAYNVDRKLDITSHNEDYTVVEQYERSEGRHSTGGMDELYKSAWSHPQFEK
notes: also called SZ6-ggs-mScarlet-I; SZ6-mScarlet-I
Does B2 bind [2]?
Result: binds

B3: STREP-mScarlet-I (other)
chain: MVSKGEAVIKEFMRFKVHMEGSMNGHEFEIEGEGEGRPYEGTQTAKLKVTKGGPLPFSWDILSPQFMYGSRAFIKHPADIPDYYKQSFPEGFKWERVMNFEDGGAVTVTQDTSLEDGTLIYKVKLRGTNFPPDGPVMQKKTMGWEASTERLYPEDGVLKGDIKMALRLKDGGRYLADFKTTYKAKKPVQMPGAYNVDRKLDITSHNEDYTVVEQYERSEGRHSTGGMDELYK
notes: Fluorescent cargo without an SZ6 domain; also called untagged cargo
Does B3 bind [3]?
Result: no binding

B4: STREP-mNeonGreen (other, not shown: small tags and cut ends)
chain: MVSKGEEDNMASLPATHELHIFGSINGVDFDMVGQGTGNPNDGYEELNLKSTKGDLQFSPWILVPHIGYGFHQYLPYPDGMSPFQAAMVDGSGYQVHRTMQFEDGASLTVNYRYTYEGSHIKGEAQVKGTGFPADGPVMTNSLTAADWCRSKKTYPNDKTIISTFKWSYTTGNGKRYRSTARTTYTFAKPMAANYLKNQPMYVFRKTELKHSKTELNFKEWQKAFTDVMGMDELYK
notes: Fluorescent cargo without an SZ6 domain; also called untagged cargo; untagged cargo construct PLacO::mNeonGreen
Does B4 bind [4]?
Result: no binding
